Source: the Immune Epitope Database (IEDB)

Legend:
HLA-A*02:16 = test: IEDB peptide-MHC binding, purified MHC/direct/fluorescence; filed as Kd, often an IC50 or EC50 that approximates it; ≥ and ≤ were set here for values at or beyond the usual limits of such assays; conditions: source organism: Influenza A virus(A/swine/Henan/2/2004(H9N2))
HLA-A*11:01 [1] = test: as above; conditions: source organism: Influenza A virus (A/tern/Australia/1/04(H2N5))
HLA-B*07:02 [2] = test: as above
HLA-A*02:06 = test: as above; conditions: source organism: Influenza A virus(A/swine/Henan/2/2004(H9N2))
HLA-A*01:01 [3] = test: as above; conditions: source organism: Influenza A virus (A/tern/Australia/1/04(H2N5))
HLA-A*02:19 = test: as above
HLA-B*08:01 [4] = test: as above; conditions: source organism: Influenza A virus (A/tern/Australia/1/04(H2N5))
HLA-B*27:05 = test: as above; conditions: source organism: Influenza A virus (A/tern/Australia/1/04(H2N5))
HLA-A*02:01 [5] = test: as above
HLA-B*15:01 = test: as above; conditions: source organism: Influenza A virus (A/tern/Australia/1/04(H2N5))
HLA-B*46:01 = test: as above
HLA-A*03:01 [6] = test: as above; conditions: source organism: Influenza A virus (A/tern/Australia/1/04(H2N5))
HLA-A*24:02 [7] = test: as above; conditions: source organism: Influenza A virus (A/tern/Australia/1/04(H2N5))
HLA-A*02:11 = test: as above
HLA-A*02:12 = test: as above
HLA-B*44:02 = test: as above; conditions: source organism: Influenza A virus (A/tern/Australia/1/04(H2N5))
HLA-B*58:01 [8] = test: as above
HLA-B*40:01 = test: as above
HLA-A*02:03 = test: as above
HLA-B*18:01 [9] = test: as above; conditions: source organism: Influenza A virus (A/tern/Australia/1/04(H2N5))
HLA-C*14:02 = test: as above; conditions: source organism: Homo sapiens
HLA-A*11:01 [10] = test: IEDB peptide-MHC binding, purified MHC/competitive/fluorescence; ≥ and ≤ were set here for values at or beyond the usual limits of such assays; conditions: source organism: Pan troglodytes
HLA-A*68:02 = test: as above; conditions: source organism: Pan troglodytes
HLA-B*07:02 [11] = test: as above; conditions: source organism: Pan troglodytes
HLA-A*01:01 [12] = test: as above; conditions: source organism: Pan troglodytes
HLA-B*08:01 [13] = test: as above; conditions: source organism: Pan troglodytes
HLA-A*02:01 [14] = test: as above; conditions: source organism: Pan troglodytes
HLA-B*37:01 = test: as above; conditions: source organism: Pan troglodytes
HLA-B*14:02 = test: as above; conditions: source organism: Pan troglodytes
HLA-B*51:01 [15] = test: as above; conditions: source organism: Pan troglodytes
HLA-A*03:01 [16] = test: as above; conditions: source organism: Pan troglodytes
HLA-A*24:02 [17] = test: as above; conditions: source organism: Pan troglodytes
HLA-B*53:01 = test: as above; conditions: source organism: Pan troglodytes
HLA-A*31:01 = test: as above; conditions: source organism: Pan troglodytes
HLA-B*58:01 [18] = test: as above; conditions: source organism: Pan troglodytes
HLA-B*40:02 = test: as above; conditions: source organism: Pan troglodytes
HLA-A*25:01 [19] = test: as above; conditions: source organism: Pan troglodytes
HLA-A*29:02 [20] = test: as above; conditions: source organism: Pan troglodytes
HLA-B*44:03 = test: as above; conditions: source organism: Pan troglodytes
HLA-B*18:01 [21] = test: as above; conditions: source organism: Pan troglodytes
HLA-B*35:01 = test: as above; conditions: source organism: Pan troglodytes
HLA-B*15:02 = test: IEDB peptide-MHC binding, purified MHC/direct/fluorescence; filed as Kd, often an IC50 or EC50 that approximates it; ≥ and ≤ were set here for values at or beyond the usual limits of such assays; conditions: source organism: dengue virus type 3
HLA-B*51:01 [22] = test: as above; conditions: source organism: West Nile virus strain PTRoxo
HLA-A*80:01 = test: as above; conditions: source organism: West Nile virus
HLA-A*25:01 [23] = test: as above; conditions: source organism: West Nile virus strain PTRoxo
HLA-A*29:02 [24] = test: as above; conditions: source organism: West Nile virus strain PTRoxo
HLA-A*01:01 [25] = test: IEDB peptide-MHC binding, purified MHC/competitive/fluorescence; filed as Kd, often an IC50 or EC50 that approximates it; ≥ and ≤ were set here for values at or beyond the usual limits of such assays; conditions: source organism: West Nile virus
[26] = source organism: Influenza A virus (A/tern/Australia/1/04(H2N5))
[27] = source organism: Influenza A virus(A/swine/Henan/2/2004(H9N2))
[28] = source organism: West Nile virus strain PTRoxo

For LLTEVETYV, the Kd (HLA-A*02:16) was no more than 0.001 µM, the Kd (HLA-A*11:01 [1]) was no less than 20 µM and the Kd (HLA-B*07:02 [2]; [26]) was no less than 20 µM. The Kd (HLA-A*02:06) was no more than 0.001 µM, the Kd (HLA-A*01:01 [3]) was no less than 20 µM and the Kd (HLA-A*02:19; [27]) was 0.002 µM. For the same sequence, the Kd (HLA-B*08:01 [4]) was no less than 20 µM, the Kd (HLA-B*27:05) was no less than 20 µM and the Kd (HLA-A*02:01 [5]; source organism: Influenza A virus (A/Puerto Rico/8/34/Mount Sinai(H1N1))) was 0.012 µM. It also gave a Kd (HLA-B*15:01) of no less than 20 µM, a Kd (HLA-B*46:01; [26]) of no less than 20 µM and a Kd (HLA-A*03:01 [6]) of no less than 20 µM. The Kd (HLA-A*24:02 [7]) was no less than 20 µM, the Kd (HLA-A*02:11; [27]) was no more than 0.001 µM and the Kd (HLA-A*02:12; [27]) was no more than 0.001 µM. The Kd (HLA-B*44:02) was no less than 20 µM, the Kd (HLA-B*58:01 [8]; [26]) was no less than 20 µM and the Kd (HLA-B*40:01; [26]) was no less than 20 µM. For the same sequence, the Kd (HLA-A*02:03; [27]) was no more than 0.001 µM and the Kd (HLA-B*18:01 [9]) was no less than 20 µM.
Sequence RPPYSSYGY has a Kd (HLA-C*14:02) of no less than 20 µM, an IC50 (HLA-A*11:01 [10]) of no less than 20 µM and an IC50 (HLA-A*68:02) of no less than 20 µM. For the same sequence, the IC50 (HLA-B*07:02 [11]) was no less than 20 µM, the IC50 (HLA-A*01:01 [12]) was no less than 20 µM and the IC50 (HLA-B*08:01 [13]) was no less than 20 µM. It also gave an IC50 (HLA-A*02:01 [14]) of no less than 20 µM, an IC50 (HLA-B*37:01) of no less than 20 µM and an IC50 (HLA-B*14:02) of no less than 20 µM. The IC50 (HLA-B*51:01 [15]) was no less than 20 µM, the IC50 (HLA-A*03:01 [16]) was no less than 20 µM and the IC50 (HLA-A*24:02 [17]) was no less than 20 µM. For the same sequence, the IC50 (HLA-B*53:01) was no less than 20 µM, the IC50 (HLA-A*31:01) was no less than 20 µM and the IC50 (HLA-B*58:01 [18]) was no less than 20 µM. It also gave an IC50 (HLA-B*40:02) of no less than 20 µM, an IC50 (HLA-A*25:01 [19]) of no less than 20 µM and an IC50 (HLA-A*29:02 [20]) of 0.252 µM. The IC50 (HLA-B*44:03) was no less than 20 µM, the IC50 (HLA-B*18:01 [21]) was no less than 20 µM and the IC50 (HLA-B*35:01) was 0.0907 µM.
In the case of GMGEAAAIF, the Kd (HLA-B*46:01; source organism: Dengue virus 1 Singapore/S275/1990) is reported as no less than 20 µM and the Kd (HLA-B*15:02) is reported as 0.158 µM.
With MTRGLLGSY the Kd (HLA-B*07:02 [2]; [28]) was no less than 20 µM, the Kd (HLA-A*02:19; [28]) was no less than 20 µM and the Kd (HLA-A*02:01 [5]; [28]) was no less than 20 µM. The Kd (HLA-B*51:01 [22]) was no less than 20 µM, the Kd (HLA-A*02:11; [28]) was no less than 20 µM and the Kd (HLA-A*80:01) was 0.173 µM. For the same sequence, the Kd (HLA-A*02:12; [28]) was no less than 20 µM, the Kd (HLA-B*58:01 [8]; [28]) was no less than 20 µM and the Kd (HLA-B*40:01; [28]) was no less than 20 µM. It also gave a Kd (HLA-A*25:01 [23]) of 0.009 µM, a Kd (HLA-A*29:02 [24]) of 0.099 µM and a Kd (HLA-A*02:03; [28]) of no less than 20 µM. For the same sequence, the Kd (HLA-A*01:01 [25]) was 0.519 µM.
